A word on the kcat: it is the maximal rate divided by the concentration of active sites. By kcat/Km is commonly meant the second-order rate constant that governs catalysis at low substrate concentration.

The target of data set [1] is T1, CmLDH1 (Cyanidioschyzon merolae, UniProt M1V6D8).
T1 construct: gene CYME_CMA145C; full length, 354 residues; E. coli BL21(DE3)
T1 sequence (M1V6D8 1-354): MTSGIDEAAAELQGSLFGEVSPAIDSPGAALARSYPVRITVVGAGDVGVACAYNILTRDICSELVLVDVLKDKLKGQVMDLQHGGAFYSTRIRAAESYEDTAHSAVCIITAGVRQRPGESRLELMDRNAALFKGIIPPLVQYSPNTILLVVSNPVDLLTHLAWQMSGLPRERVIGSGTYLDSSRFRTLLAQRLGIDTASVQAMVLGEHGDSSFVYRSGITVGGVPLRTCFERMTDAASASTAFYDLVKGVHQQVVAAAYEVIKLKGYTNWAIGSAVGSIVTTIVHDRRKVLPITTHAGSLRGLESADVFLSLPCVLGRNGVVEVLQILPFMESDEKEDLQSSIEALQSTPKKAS
In words: NADH oxidation at […] nm, relative activity. Format: biochemical. The note with it: activation; 5 mM FBP, 0.20 mM pyruvate, 0.05 mM NADH, pH 7.0, 57 °C.

The target of data set [2] is T1, CmLDH1. In words: NADH oxidation at […] nm, relative activity. The note with it: inhibition, 0.20 mM pyruvate, 0.05 mM NADH, pH 7.0, 57 °C. Format: biochemical.
Substrate in data set [3]: CC(=O)C(=O)O
Description: purified protein. Particulars: 0.15 mM NADH, pH 4.5 (optimum), 57 °C, no effector. Format: biochemical, Cyanidioschyzon merolae.

Substrate in data set [4]: NC(=O)C1=CN([C@@H]2O[C@H](COP(=O)(O)OP(=O)(O)OC[C@H]3O[C@@H](n4cnc5c(N)ncnc54)[C@H](O)[C@@H]3O)[C@@H](O)[C@H]2O)C=CC1
In words: purified protein. The note with it: 2 mM sodium pyruvate, pH 4.5 (optimum), 57 °C, no effector. Format: biochemical, Cyanidioschyzon merolae.

Turning to `O=P(O)(O)OC[C@H]1OC(O)(COP(=O)(O)O)[C@@H](O)[C@@H]1O` (stereo partly drawn) [FBP], the “relative activity at 5 mM” value at CmLDH1 [1] is given as 1.2 fold.
For the molecule `Nc1ncnc2c1ncn2[C@@H]1O[C@H](COP(=O)(O)OP(=O)(O)OP(=O)(O)O)[C@@H](O)[C@H]1O` [ATP], at CmLDH1 [2] (mixed inhibitor for NADH), the relative activity entry was “ATP and ADP (particularly ATP) decreased CmLDH1 activity”.
Regarding `Nc1ncnc2c1ncn2[C@@H]1O[C@H](COP(=O)(O)OP(=O)(O)O)[C@@H](O)[C@H]1O` [ADP], the relative activity entry at CmLDH1 [2] was “ATP and ADP (particularly ATP) decreased CmLDH1 activity”.

B1: CmLDH1 (Cyanidioschyzon merolae strain 10D) (protein)
chain: MTSGIDEAAAELQGSLFGEVSPAIDSPGAALARSYPVRITVVGAGDVGVACAYNILTRDICSELVLVDVLKDKLKGQVMDLQHGGAFYSTRIRAAESYEDTAHSAVCIITAGVRQRPGESRLELMDRNAALFKGIIPPLVQYSPNTILLVVSNPVDLLTHLAWQMSGLPRERVIGSGTYLDSSRFRTLLAQRLGIDTASVQAMVLGEHGDSSFVYRSGITVGGVPLRTCFERMTDAASASTAFYDLVKGVHQQVVAAAYEVIKLKGYTNWAIGSAVGSIVTTIVHDRRKVLPITTHAGSLRGLESADVFLSLPCVLGRNGVVEVLQILPFMESDEKEDLQSSIEALQSTPKKAS
notes: full length, 354 residues; E. coli BL21(DE3)
Consider B1, for which, in “purified protein [3]”, the K0.5 stood at 0.13 ± 0.005 mM, the kcat was 314 ± 3 s⁻¹ and the kcat/Km stood at 2.46e+06 ± 75000 M⁻¹ s⁻¹. For the same molecule, in the data set “purified protein [4]”, the K0.5 was 0.011 ± 0.0006 mM, the kcat is 324 ± 6 s⁻¹ and the kcat/Km amounted to 2.95e+07 ± 1.05e+06 M⁻¹ s⁻¹.

For the origin of these results see article PMC11387445, “L-Lactate dehydrogenase from Cyanidioschyzon merolae shows high catalytic efficiency for pyruvate reduction and is inhibited by ATP” (Plant Molecular Biology, 2024).
